The nature of this data set: protease stability score; higher = more stable; yeast display proteolysis, trypsin and chymotrypsin.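 Further: relative to predicted unfolded state with 0 unfolded-like and 1 meaning tenfold more protease.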
The sequence “HEEDKWMKEVLYRFYEHYQTGDEDSLVKLMDPHAKLSFEGRENHGRDAIKTYWDIMGFDHLRLRDYEIRIIDGRAHLIVDTEIEIGDKRRRTIIIMHVLKFNGRWIVTHFHVEVR” registered a protease stability score of 0.835.
For “HEEEEEAERFVKEIIHSWKTGNEDDMHRLVDPNVRLIIGDKTYHGRENFVKHMEEWLQRAGVKHFHLRKVDVFDGKLDIHSEVRQGSDETELHISVEKINGRWRLQLVIIV”, the protease stability score amounted to 1.7.
“HEEEEEARDLLKKLLEDFETGNEESLHEYADPNTRTIWDGVEFHGREWMLEIIKQIRVHSVHIHDVRLIDGVLIVKGRMDGDINGQRHTLEVNIFFLKINGRWFFHHMEFE” came in with a protease stability score of 2.51.
Take “HEEEEEARRFSTLFNRAMLTGDEDELKEYADPHVRIDINGVILHGRERLREWLEKYLKEIRWHDFKIEHVDVQGDKVDIKVNVDGHINGRRTTRETEIRVEKIDGRWVIREIRFR”: the protease stability score is 0.673.
The sequence “HEEEEEFKHVVKEVKEFSETGDWDVLNELMDPHVRLFVNGRLHHGREQISEFWHKVKNVTLIIRHIRPVGEKLEVDGEMKFDGKNIEARIHAQKIDGRWITREYRII” yielded a protease stability score of 1.12.
The value for “HEEEEEIKEATRLFEEIHRTGDERESREMIDPNALFEVGNFKDHGWDSIHVLMRRVKNVKITLDDFKIQGDKVHLHITENFNGKRVHVTIIAVKINGVWFVHKIRYD” was 1.44.
For “HEEEEEIVRHLEKLLRDLWTGDWDDIEHNLDPNVRIEYGEKTRVGREKFVKTFFDMGMKLRHVRINEFHVVDGRLHVDTRIDGNFNGVEFRTRVEIIAVKINGKWVLHSVHIL” the value was 1.22; for “HEEEEEVKEALKELKELLETGDEDLWRRLADPDTRFELEFEGRHFHLHGWEAVLHFIREIKRRFKNVQFDWKRLNTQGNFAHMHVEIRVGDKIIHLDIIVLKYNGQWLDKRVRIFFE”, 1.91.
The value for “HEEEEFSRRLAEMLFEFWLTGDEDALERLIDPNARVEMSINGRDFHTHGRDHIIEWVRKIKNLVFRIRRVEIQGEKIILDGEFDVNGVRTRWKLNLVFIDGVVHRLNIIHV” was 1.72; that for “HEEEEHIWRMFKLFIHYLLTGDPDMLARYADPNVRLDINGQEWHGREEMFEMLKIFFDELRIKHFHLRRWRVVDGVAHVDVETHGNYNGREETRKVHIHVVIFNGRMKELVIKIS” was 2.66; that for “HEEEEHSIRILEEWWRALLTGDEDRLKELMDPHVLLLSDVGDKNHIHIGREEAFRFWHEFVRQVKNMTLRIDQVHVQGDKVHLRGTLLINGRERDIRIDILIINGKVREVRIKII” was 2.45.
For “HEEEEIERIAYNIYEYVRKTGDERVMTEMADPDARLIYGDKELVGREHMVQFLRWLLEQYKNVQLHIEHVEMIGDFVKIQSNLNVNGRTIEVELILLKYNGKWRIRSSVFK”, the protease stability score amounted to 1.07.
For “HEEEEIVHRFVEDWFRHLKTGDFRSLFQLLDPHTRTDINGKSIHGRDTIMTEIIENMIRLGVNHMEVRIHHISVVDGQAHIDIWLIIRVNGKEQAHHVHILAQKINGKWFLKDIRFE” the value was 1.5; for “HEEEEKARYFLEIFFHHLLTGDWHILMELLDPDVRMEYDGKKFHGRESAIEIWRELRVTEIHIRHIHMFNGRVYADTEMRGIVNGVNTNTHSELYVRKYDGRWKVEFVVVH”, 2.31.
The value for “HEEEEKVERYTRMYWNHLLTGDEDILQELMDPHARSTEIYGDFRIENHGRKAQHWLLRRIDHITSLRIHDVQIVDGVALVDSESDYRIGDKEIRVRTELIVHVVNGKIKSVSISVR” was 0.896; that for “HEEEELARKLVEILLNLLLTGDEDVIRHLLDPNARIHIDGQDNVGREEVIRVWRHWLEKFGIDHIEINRIHYQGEWLHIIGLVKVNGRERPLHIHLNVINGRLKHSEFRIR” was 1.48; that for “HEEEELERTILELVLHYLKTGDEHFMKNMADPNARSTIGDKDLHGREWMSEVWKRIKNVRIEIDRVDMINGVVHLHITVEYNGRRTHLTLHAEKVDGRWIIRELRVE” was 1.61.
Turning to “HEEEELLERAMKELEHILRTGDWELHEKNADPHVKLDVNGRIVHGRELVITVLRRLFEELGVDHIHLHDFKVVGDKMHIDLRIHVGDKEFQLEIIIIKIDGRWHIHSERFN”, the protease stability score was found to be 0.363.
Regarding “HEEEELLERVIRLMVENIITGNEDQLNNLVDPHAKIDIDGVILHGRDWVRDLHERVDHMEVRITDWRMIGDKVQTDSRLTNRFNGKEYRRDVRFHAHKINGRWINQTIEIR”, the protease stability score came to 0.722.
For “HEEEEREKEISDTFLMAWRTGDWKFFHELADPHVRVEIGDKRFIGRELLTKHMRHNVNKVKGMTHTLTHIIIQGDKIHLDGELIVDGRSHKVDFHIIVIDGRLHSLHVIIS” the value was 0.574; for “HEEEERLKEVLELVVESFRTGDFNYLKNLIDPNVRVTVGDKDVHGRDFFVRIMSEMRVTHYEFRHVERFNGQAHIDGELDIRIGDKRERHEIKIITLKINGKWYMETLIIQ”, 1.18.
For “HEEEESFKNALEMWIRTVKTGDEKLESDLLDPDARLIFNGQEFHGRELVKKILIDWRKELRVRDFELRDFHIQGDKIYIDGTMFVEINGQTETRKIVIVFVKVNGRWLIHQVTFH” the value was 2.24.
“HEEEEWFKEVLHEVERLLMTGDWRTLVELLDPNVRININGVEYHGREEAHHKLEETFRRLGFDHIHFQHVEHQGEKVIVHLEVRFNGQSSIIRFVVLKVNGRWFNHSLQIN” returned a protease stability score of 1.29.
“HEEEHDLKEVIRLFLELIDTGDEDVLERLADPNMRVIQGDKTIHGREEVRRTMQEDAKRIDHFEFRLRRVRVINGRLEVDGEFIERAEGHEFRSRVNIMLVKVNGRWVLKIIELR” had a protease stability score of 1.65.
On to “HEEEHEMRKLAHILFEVLLTGNWKLLAELADPDVLTHINGRDMHGMESELETWKHLRIRDMKIRHVDVQGDKVHLDTELEGEINGRRFQTRTHIHYLLVDGRTKHVKVQID”, for which the protease stability score came to 1.51.
For “HEEEHHMRELFKRFWHLFETGDWDKLAKNADPNVRSDINGVDRHGREEVIHELKRIWDELGIDHLELKEVHIQGNKVHSDGKLVYNGVSRKTHIELIVYNGVLKRMSIEIH” the value was 1.38; for “HEEEHVAKEIVEILYHAIITGDEDLIKELMDPNVRLDINGKQVHGRDEWIKELRHLRFRHMKLEVKAVEVVDGRIHSDVILHVDGHFDGRTRRLTIEVHWIIFKINGRWHIQSVEIR”, 2.31.
Sequence “HEEEKEIEKWVRLLLEVIQTGDEHWFERMADPNARVEVGEFEKHGRELFFEMTVRIVKKLGVDHVQLRRFDLIDGVALDHMELRIGDKHVEFIHISSKVNGRWFDKEVRVREI” had a protease stability score of 0.939.
In turn, “HEEEKHAHEVLQLFIESVETGDWRMWEHLADPHVRLEVNGQEVIGREDALRWLEELLKKLGVDHFKLELEDHHIQGEKVRSITRSHIRVNGVRIDRTTHVIIVVINGRLKHIEVRER” came in with a protease stability score of 0.204.
The value for “HEEEKHLKEMIERLYHYQLTGNWEELHRLADPHAKWHINGQDIHGMHIAVELILKEVRRIDHVDSDSKRIDMQGDKMRSNVHEIIEVGDKSIRRDSILILVIIDGRIREVSIIIL” was 1.1; that for “HEEEKHMEELSRHFLHNEHTGDEKMLKHLADPHAKVFINGRELHGWDVLVEWLNKFKNIKVELHSERVINGRLFLHVNYHVNGRTTELHLILYIVDGKIHTLILEVR” was 0.756.
In the case of “HEEEKHREDFVRTWLHNLITGNFEHHRHLADPRVRIRIIVDGREQRIHGREEMIRWFREWMELFPGYYRHIEHSDIIGEYVHIEGQLEVNGKRLDVHIHLEVINGKIKHLTIDSR”, the protease stability score turned out to be 1.09.
For “HEEEKIIEEASKRWLELMQTGDEDKVLHYLDPEYRSEWDGVEIHGRETFRKWLLDLLRKFKGLRFEFRDVRDVGDKVRIIGTVTYDGKVRDTRIDVVIVNGRYKSMEIHFN” the value was 1.69; for “HEEEKLARTFSEVVERSLYTGDEDSLKRLMDPHVRMNVNGVRHIGMELAKEWLHRYIRQLGIDHSTIRHSHDEIQGEKVIVRLHGELVYNGVSREVELIIHVNKVNGVWTISELLVILK”, 1.25.
Consider “HEEEKLNHLWYEIVVHLLLTGNWKEIKKNADPHARSDINGVEYHGREEVSEVLHHVMKKMGAKVFREKEHDHQGEYMHIHFEIRVGDKLVESTLISLKVDGRWIHHEYREK”, for which the protease stability score worked out at 1.37.
In turn, “HEEEKQIHDIIEIIIRLLVTGNEEIHKRLADPHVRVEVGDKHFHGREEVTKFLMRIDHVQHVDHRIHRMDIIDGRADVHGDLLIDGDFDGRRTRTDIRVRWRIIKIDGRWILHSYSVL” yielded a protease stability score of 1.24.
“HEEEKQMREAVEEAYHVLRTGDEKTIRELADPDVRLDINGKEIIGRELFFRHLWYEFYFFKNMRITIKHYEIQGEKVHIHIEIDWNGKELRSHMEVDKVDGRWLLHSVIFR” showed a protease stability score of 0.783.
The sequence “HEEEKSRKKEFEEYVRSVKTGDERLLTEMADPNARVHIGDKTLIGRELMHEMWHEQLKQIDVFHDIKTTHSEVQGDKIHMHVVEDIIIGDKRHTIRLRMIAWKFNGKWLVEEVRFE” yielded a protease stability score of 0.435.
As for “HEEEQEIEKIVEDILRAWETGDWKTFYELADPHTKHTLIQGDKHIHRHGRDRMSDLLEELLKRFKGAIVDIKDIKWIDGQLNMTGELQIGDKKHKVHLHMNFIDGKIKRIEIRVD”, the protease stability score worked out at 1.13.
In the case of “HEEERDAEKLIRIWYHYLVTGDEERLLELLDPSTRMDINGVTHHGMEIVRDALHDLLRHLGVKVFRDIHIESVEIQGEKVITRMHVLFEVDGQELRIDSILFSHKINGKWLIEMHSKK”, the protease stability score turned out to be 1.23.
Sequence “HEEERDLEHWDELLLKSITTGDWRILTKLVDPHARIIILVNGKLITHIGREYVYHLLLRFDHIRTHDFRTNIQGDYIDHHIEGKLHVNGKDMDSHIINHSEKVDGRWTVHTVNIEFI” yielded a protease stability score of 1.22.
With “HEEEREAHEMLRIIVHAIRTGDEELLMRYLDPDVRMILLVDGVEVHRIGREEASKLISELWHHIRLKDLKVREIDNQGEYSHVRTERDGEVNGKKNTLETELDIIVIDGRVTDVTIRIR”, the protease stability score was 1.1.
For “HEEERHREEIMERLLTAIKTGDPKITRELIDPHTRIEIGDKNLHGMEIWLKYIHTLFEKFPNLTLRIEDSHAQGEKFIIVIRLRFDGREVNLVLYYTIVNGRIKTIEIEEK” the value was 1.43; for “HEEERILRFYLEWIEHHLRTGDERFIEENADPNVKIRVNGKDIHGRERYNEVWDKVLRDFGVDHTNDKDTTAYDGRIEVHEEWRFNGRRVDVETIIIFINGVIKHIEIRIRIE”, 2.12; for “HEEERIVEEVAKHFLHHFVTGDWHNLARLADPHVRSDINGRELHGWETLIHVMLKDLRRLGFKHFEVHHVHIQGDKYHNDGTLDYNGVKVRSHLEFQIVDGKLHQMRVQDK”, 1.07.
“HEEERLAREYMKRLIHDWVTGDEREHLKLLDPDVRFVQGDKHHHGREEMMRWFQEIRVEDLKHTDEKVYGEKAFVTGHTTWNINGQKIEVKVHYEFVVVNGRVKMIRIDVQ” showed a protease stability score of 1.22.
“HEEETHWRSLTHLFAEWIITGNEDLYMELADPHYLIEIDGKTQHGRENANEVHETFWKDYGFKHRHVRSVRQVGDFVEIEVNLLFNGQRYDMHIHVFVIDGKLKEIHVSLK” had a protease stability score of 1.33.

The values are drawn from the NTF2 design screens of Basanta et al. (2020).
